According to US20130230533A1 (Regeneron, published 2013):
Each block holds one binder with its values, some of them ahead of it.

How the values were obtained:
[1] = molecular target: T1, human CD48 (on primary human peripheral blood mononuclear cells) (human, UniProt P09326 27-220); assay: cell-based or functional assay
T1 sequence: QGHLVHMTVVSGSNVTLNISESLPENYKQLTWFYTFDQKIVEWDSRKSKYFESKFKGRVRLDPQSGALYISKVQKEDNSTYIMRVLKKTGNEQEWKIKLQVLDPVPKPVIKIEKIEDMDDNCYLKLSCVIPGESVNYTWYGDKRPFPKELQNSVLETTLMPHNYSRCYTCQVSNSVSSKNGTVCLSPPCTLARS

[2] = molecular target: T1, human CD48 (on primary human peripheral …); assay: cell-based or functional assay; remark: listed apart in the source
[3] = molecular target: T1, human CD48 (on primary human peripheral …); assay: cell-based or functional assay; remark: listed apart in the source
[4] = molecular target: T2, monomeric monkey CD48 expressed with a tag consisting of 2 myc and one 6-His epitopes (monkey); assay: competition ELISA; blocks mfCD48-mmH binding to coated h2B4-mFc
T2 construct: also called mfCD48-mmH; Monomeric monkey CD48-mmH
T2 chain: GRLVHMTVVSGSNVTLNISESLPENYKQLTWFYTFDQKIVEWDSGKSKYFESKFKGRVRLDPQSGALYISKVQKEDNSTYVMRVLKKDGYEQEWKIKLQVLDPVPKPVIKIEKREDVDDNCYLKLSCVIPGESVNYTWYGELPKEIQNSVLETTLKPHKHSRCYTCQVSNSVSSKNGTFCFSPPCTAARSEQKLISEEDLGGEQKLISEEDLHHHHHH
Procedure: (§1) The ability of human anti-CD48 monoclonal antibodies to block human CD48 and monkey CD48 binding to the human cognate ligand, human 2B4, was measured using a competition sandwich ELISA (Table 8). Constant amounts of biotinylated dimeric human CD48 protein expressed as a fusion with mouse IgG2a Fc (“bio-hCD48-mFc” [SEQ ID NO: 387]) or monomeric monkey CD48 expressed with a tag consisting of 2 myc and one 6-His epitopes (“mfCD48-mmH” [SEQ ID NO: 386]) were separately titrated with varying amounts of antibodies. These antibody-protein complexes were incubated (1 hr, 25° C.) before being transferred to microtiter plates coated with a dimeric construct expressing the human 2B4 receptor fused to a either human IgG1 (h2B4-hFc [R&D Systems, Inc., Minneapolis, Minn., Cat. No. 1039-2B]) or mouse IgG2a Fc (h2B4-mFc [SEQ ID NO: 389). After a 1 hr at 25° C. the wells were washed and bound human CD48 was detected with streptavidin conjugated with horse-radish peroxidase (HRP), and monkey CD48 was detected with an HRP conjugated anti-myc polyclonal antibody. The ELISA was developed with a TMB solution to produce a colorimetric reaction and quenched with sulfuric acid before reading absorbance at 450 nm on a Victor X5 plate reader. Sigmoidal dose response curves were fit to the data using Prism™ software. […] (Tables 8 and 9, NB=no binding observed)

[5] = molecular target: T3, biotinylated dimeric human CD48 protein expressed as a fusion with mouse IgG2a Fc (human, biotinylated); assay: competition ELISA; blocks bio-hCD48-mFc binding to coated h2B4-mFc
T3 construct: also called bio-hCD48-mFc; Dimeric human CD48-mFc
T3 chain: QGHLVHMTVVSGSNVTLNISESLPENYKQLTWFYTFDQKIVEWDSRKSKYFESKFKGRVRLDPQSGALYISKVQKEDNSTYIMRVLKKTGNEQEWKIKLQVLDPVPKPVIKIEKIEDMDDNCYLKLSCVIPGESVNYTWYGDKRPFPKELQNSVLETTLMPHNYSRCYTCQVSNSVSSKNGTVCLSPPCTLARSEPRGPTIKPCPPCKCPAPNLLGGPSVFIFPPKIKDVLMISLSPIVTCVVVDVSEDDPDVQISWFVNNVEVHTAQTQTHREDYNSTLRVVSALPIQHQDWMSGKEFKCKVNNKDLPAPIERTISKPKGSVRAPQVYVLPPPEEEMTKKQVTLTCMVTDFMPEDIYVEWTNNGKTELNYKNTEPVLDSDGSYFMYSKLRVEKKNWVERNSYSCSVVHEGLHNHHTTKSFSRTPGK
Procedure: as §1

[6] = molecular target: T1, human CD48 (on primary human peripheral …); assay: cell-based or functional assay; remark: listed apart in the source
[7] = molecular target: T2, monomeric monkey CD48 expressed with a …; assay: competition ELISA; blocks mfCD48-mmH binding to coated h2B4-hFc
Procedure: as §1

[8] = molecular target: T3, biotinylated dimeric human CD48 protein …; assay: competition ELISA; blocks bio-hCD48-mFc binding to coated h2B4-hFc
Procedure: as §1

B2: H2M1712N (antibody, mouse IgG2, V domains shown)
VH: QIQLVQSGAEMKRPGTSVKVSCKASGYTFSSYGINWVRQAPGQGLEWMGWISAYNGDTNYAQKLQGRVTMTTDTSTTTAYMEVRSLRSDDTAVYYCARFLTGTKDLYYGMDVWGQGTTVTVSS
VL: DIQMTQSPSSLSASVGDRVTITCQASQDISNFLNWYQQKPGKAPDLLINDASILETGVPSRFSGSGSGTDFTLTINSLQPEDIATYYCQQYDNLPLTFGGGTKVEIK
notes: Human variable domains, mouse IgG2 Fc (H2M)
Inhibition of IFN-gamma Release IC50; Donor 1 [6]: 2e-11 Molar | Inhibition of IFN-gamma Release IC50; Donor 2 [6]: 2.8e-11 Molar | Inhibition of IFN-gamma Release IC50; Donor 3 [6]: 7.2e-11 Molar | Inhibition of IFN-gamma Release IC50; Donor 4 [6]: 4.8e-11 Molar | Inhibition of IFN-gamma Release IC50; Donor 5 [6]: 1.1e-11 Molar | IC50 [7]: 0.017 nM | IC50 [8]: 0.014 nM

B4: H2M1811N (antibody, mouse IgG2, V domains shown)
VH: QVQLVQSGAEAREPGASVRVSCKASGYTFTDYFIHWVRQAPGQGLEWMGWINPNSGATNFAQKFQGRVTMTRDTSLITAYMDLSRLKSDDAAVFYCARDVDGSGWYLDFWGQGTLVTVSS
VL: EIVLTQSPATLSLSPGERATLSCRASQSVSIYLAWYQQKPGQAPRLLIYDASNRATGIPARFSGSGSGTDFTLTISRLEPEDFAVYYCQQRSDWPPSITFGQGTRLEIK
notes: as for B2
Inhibition of IFN-gamma Release IC50; Donor 1 [6]: 9.1e-11 Molar | Inhibition of IFN-gamma Release IC50; Donor 2 [6]: 4.6e-10 Molar | Inhibition of IFN-gamma Release IC50; Donor 3 [6]: 8.3e-11 Molar | Inhibition of IFN-gamma Release IC50; Donor 4 [6]: 4.8e-10 Molar | Inhibition of IFN-gamma Release IC50; Donor 5 [6]: 9.4e-11 Molar | IC50 [7]: 0.22 nM | IC50 [8]: 0.49 nM

Further lines, results first:

Inhibition of IFN-gamma Release IC50; Donor 7 [1]: 5.1e-12 Molar | Inhibition of IFN-gamma Release IC50; Donor 8 [2]: 3.1e-12 Molar | Inhibition of IFN-gamma Release IC50; Donor 9 [2]: 2.3e-12 Molar | Inhibition of IFN-gamma Release IC50; Donor 10 [2]: 2e-11 Molar | % Blockade of IFNγ release, MLR; D1 [3]: 42% | % Blockade of IFNγ release, MLR; D2 [3]: 77% | % Blockade of IFNγ release, MLR; D3 [3]: 87% | % Blockade of IFNγ release, MLR; D4 [3]: 37% | % Blockade of IFNγ release, MLR; D5 [3]: 70% | % Blockade of IFNγ release, MLR; D6 [3]: 72% | % Blockade of IFNγ release, MLR; D7 [3]: 69% | % Blockade of IFNγ release, MLR; D8 [3]: 22% | % Blockade of IFNγ release, MLR; D9 [3]: 60% | IC50 [4]: 0.043 nM | IC50 [5]: 0.044 nM
B1: H4H1775P (antibody, human IgG4, V domains shown)
VH: QVQLVESGGGVVQPGRSLRLSCAASGFTFSNYGMHWVRQAPGKGLEWVAVIWYDESGKHYADSVKGRFTISRDNSQNTLYLQMTSLRAEDTAVYYCARDRWTYSHYFEYWGQGTLVTVSS
VL: DIQMTQSPSSVSASVGDRVTITCRASQDISSWVAWYQQKPGKAPKLLIYAASSLQSGVPSRFSGSGSGTDFTLTISSLQPEDFATYYCQQANSFPRTFGQGTKVEIK
notes: Human IgG4 Fc (H4H)

Inhibition of IFN-gamma Release IC50; Donor 6 [1]: 2e-12 Molar | Inhibition of IFN-gamma Release IC50; Donor 7 [1]: 2.2e-11 Molar | Inhibition of IFN-gamma Release IC50; Donor 10 [2]: 1.4e-12 Molar | Inhibition of IFN-gamma Release IC50; Donor 11 [2]: 8.6e-11 Molar | % Blockade of IFNγ release, MLR; D2 [3]: 65% | % Blockade of IFNγ release, MLR; D3 [3]: 62% | % Blockade of IFNγ release, MLR; D4 [3]: 39% | % Blockade of IFNγ release, MLR; D5 [3]: 62% | % Blockade of IFNγ release, MLR; D6 [3]: 63% | % Blockade of IFNγ release, MLR; D7 [3]: 58% | % Blockade of IFNγ release, MLR; D8 [3]: 25% | % Blockade of IFNγ release, MLR; D9 [3]: 59% | IC50 [4]: 0.0044 nM | IC50 [5]: 0.014 nM
B3: H4H1772P (antibody, human IgG4, V domains shown)
VH: EVQLVESGGGLVQPGGSLRLSCAASGFTFSSYWMSWVRQAPGKGLEWVANIMRDGSEKYYVDSVKGRFTISRDNAKNSLYLQMNSLRGEDTAVYYCARERGFYTNYGNWFDPWGQGTLVTVSS
VL: DIVMTQSPLSLTVTPGESASISCRSSQSLLHSYGYNSLDWYLQKPGQSPQFLIYLVSNRASGVPDRFSGSGSGTDFTLKISRVEAEDVGVYYCMQVLQTPYTFGQGTKLEIK
notes: Human IgG4 Fc (H4H)
